Results on 1 protein are retold here after article PMC3688593, “Cytokine Receptor-Like Factor 1 (CRLF1) Protects against 6-Hydroxydopamine Toxicity Independent of the gp130/JAK Signaling Pathway” (PLoS ONE, 2013).

The data set deals with the molecule itself. Briefly: non-reducing versus reducing SDS-PAGE with immunoblot; proteins precipitated from conditioned media of stable SH-SY5Y lines; about 110 kDa band on non-reducing gels, 55 kDa CRLF1 band on reducing gels; blots for CRLF1 and CLCF1.

B1: cytokine receptor-like factor 1 (CRLF1), full-length, untagged (natural protein, UniProt O75462 38-422, looked up)
chain: AHTAVISPQDPTLLIGSSLLATCSVHGDPPGATAEGLYWTLNGRRLPPELSRVLNASTLALALANLNGSRQRSGDNLVCHARDGSILAGSCLYVGLPPEKPVNISCWSKNMKDLTCRWTPGAHGETFLHTNYSLKYKLRWYGQDNTCEEYHTVGPHSCHIPKDLALFTPYEIWVEATNRLGSARSDVLTLDILDVVTTDPPPDVHVSRVGGLEDQLSVRWVSPPALKDFLFQAKYQIRYRVEDSVDWKVVDDVSNQTSCRLAGLKPGTVYFVQVRCNPFGIYGSKKAGIWSEWSHPTAASTPRSERPGPGGGACEPRGGEPSSGPVRRELKQFLGWLKKHAYCSNLSFRLYDQWRAWMQKSHKTRNQDEGILPSGRRGTARGPAR
notes: signal peptide in the construct; cytokine receptor-like factor 1 (CRLF1), untagged full-length open reading frame in pCDH-EF1-MCS-IRES-neo; detected in the conditioned medium as the secreted protein; The 110 kDa band is lost on reduction, so the dimer appears to be disulfide-linked; also called CRLF1-FL; FL
By stoichiometry N is commonly meant a count of units in the complex or per binding partner. Regarding B1, the “stoichiometry N” value turned out to be 2.
